Data from the Immune Epitope Database (IEDB).

What was measured:
HLA-A*24:02 = assay: IEDB peptide-MHC binding, purified MHC/direct/fluorescence; filed as Kd, often an IC50 or EC50 that approximates it; ≥ and ≤ were set here for values at or beyond the usual limits of such assays
HLA-A*01:01 [1] = assay: IEDB peptide-MHC binding, purified MHC/competitive/fluorescence; ≥ and ≤ were set here for values at or beyond the usual limits of such assays
HLA-A*02:01 [2] = assay: as above
HLA-A*01:01 [3] = assay: IEDB peptide-MHC binding, purified MHC/direct/fluorescence; filed as Kd, often an IC50 or EC50 that approximates it; ≥ and ≤ were set here for values at or beyond the usual limits of such assays
HLA-A*24:03 = assay: as above; details: source organism: Rickettsia prowazekii
HLA-B*08:01 = assay: as above
HLA-A*69:01 [4] = assay: as above
HLA-B*15:01 [5] = assay: as above
HLA-A*02:01 [6] = assay: as above
HLA-A*31:01 = assay: as above
HLA-B*58:01 = assay: as above
HLA-B*07:02 = assay: as above
HLA-B*27:05 = assay: as above
HLA-B*40:01 = assay: as above
HLA-A*03:01 [7] = assay: as above
HLA-B*44:02 = assay: as above
HLA-A*26:01 [8] = assay: as above
HLA-A*11:01 = assay: as above
HLA-B*35:01 = assay: as above
HLA-B*15:01 [9] = assay: IEDB peptide-MHC binding, purified MHC/competitive/fluorescence; ≥ and ≤ were set here for values at or beyond the usual limits of such assays; details: source organism: Vaccinia virus
HLA-C*12:03 = assay: IEDB peptide-MHC binding, purified MHC/direct/fluorescence; filed as Kd, often an IC50 or EC50 that approximates it; ≥ and ≤ were set here for values at or beyond the usual limits of such assays
HLA-A*68:02 = assay: IEDB peptide-MHC binding, purified MHC/competitive/fluorescence; filed as Kd, often an IC50 or EC50 that approximates it; ≥ and ≤ were set here for values at or beyond the usual limits of such assays; details: source organism: Entamoeba histolytica
HLA-A*69:01 [10] = assay: as above; details: source organism: Entamoeba histolytica
HLA-B*15:01 [11] = assay: as above; details: source organism: Entamoeba histolytica
HLA-A*02:12 = assay: as above; details: source organism: Entamoeba histolytica
HLA-A*02:19 = assay: as above; details: source organism: Entamoeba histolytica
HLA-A*02:01 [12] = assay: as above; details: source organism: Entamoeba histolytica
HLA-A*02:03 = assay: as above; details: source organism: Entamoeba histolytica
HLA-B*27:03 = assay: as above; details: source organism: Entamoeba histolytica
HLA-A*02:11 = assay: as above; details: source organism: Entamoeba histolytica
HLA-A*29:02 = assay: as above; details: source organism: Entamoeba histolytica
HLA-B*46:01 [13] = assay: as above; details: source organism: Entamoeba histolytica
HLA-B*57:01 = assay: as above; details: source organism: Entamoeba histolytica
HLA-A*02:16 = assay: as above; details: source organism: Entamoeba histolytica
HLA-A*03:01 [14] = assay: as above; details: source organism: Entamoeba histolytica
HLA-A*26:01 [15] = assay: as above; details: source organism: Entamoeba histolytica
HLA-B*39:01 = assay: as above; details: source organism: Entamoeba histolytica
HLA-B*08:02 = assay: IEDB peptide-MHC binding, purified MHC/direct/fluorescence; filed as Kd, often an IC50 or EC50 that approximates it; ≥ and ≤ were set here for values at or beyond the usual limits of such assays; details: source organism: Influenza A virus H3N2
HLA-B*46:01 [16] = assay: as above; details: source organism: Influenza A virus (A/South Carolina/1/1918(H1N1))
HLA-B*18:01 = assay: as above; details: source organism: Influenza A virus (A/South Carolina/1/1918(H1N1))
HLA-A*30:01 = assay: as above; details: source organism: Escherichia coli
HLA-C*05:01 = assay: as above; details: source organism: Mycobacterium tuberculosis variant bovis
HLA-C*15:02 = assay: as above; details: source organism: Mycobacterium tuberculosis variant bovis
[17] = source organism: Rickettsia prowazekii
[18] = source organism: Zaire ebolavirus
[19] = source organism: Influenza A virus (A/South Carolina/1/1918(H1N1))
[20] = source organism: Escherichia coli
[21] = source organism: Shigella dysenteriae
[22] = source organism: Mycobacterium tuberculosis variant bovis
[23] = source organism: Vibrio parahaemolyticus

Work on DYLTTYFTW yielded a Kd (HLA-A*24:02; source organism: Bacillus anthracis str. A0488) of at most 0.001 µM.
Sequence ITDFHERPV has an IC50 (HLA-A*01:01 [1]; source organism: Variola virus) of 6.25 µM and an IC50 (HLA-A*02:01 [2]; source organism: Variola virus) of 5.75 µM.
Work on IWIKLSYLW yielded a Kd (HLA-A*24:02; source organism: Cryptosporidium parvum Iowa II) of 0.01 µM.
Sequence NLKLYGAEF has a Kd (HLA-A*01:01 [3]; [17]) of at least 20 µM, a Kd (HLA-A*24:03) of 11.6 µM and a Kd (HLA-B*08:01; [17]) of 0.433 µM. The Kd (HLA-A*69:01 [4]; [17]) was at least 20 µM, the Kd (HLA-B*15:01 [5]; [17]) was 0.133 µM and the Kd (HLA-A*02:01 [6]; [17]) was at least 20 µM. The Kd (HLA-A*31:01; [17]) was at least 20 µM, the Kd (HLA-B*58:01; [17]) was at least 20 µM and the Kd (HLA-B*07:02; [17]) was at least 20 µM. The Kd (HLA-B*27:05; [17]) was at least 20 µM, the Kd (HLA-B*40:01; [17]) was at least 20 µM and the Kd (HLA-A*03:01 [7]; [17]) was at least 20 µM. It also gave a Kd (HLA-B*44:02; [17]) of at least 20 µM, a Kd (HLA-A*26:01 [8]; [17]) of at least 20 µM and a Kd (HLA-A*11:01; [17]) of at least 20 µM. It also gave a Kd (HLA-B*35:01; [17]) of 0.281 µM.
Sequence NTSKSTDFL has an IC50 (HLA-A*01:01 [1]; [18]) of at least 191 µM and an IC50 (HLA-A*02:01 [2]; [18]) of at least 495 µM.
Work on PSIATNLEY yielded an IC50 (HLA-A*01:01 [1]; source organism: Vaccinia virus) of 15.2 µM and an IC50 (HLA-B*15:01 [9]) of 43.7 µM.
For RASHFRKLF, the Kd (HLA-C*12:03; source organism: Entamoeba histolytica) was 0.019 µM, the Kd (HLA-A*68:02) was at least 20 µM and the Kd (HLA-A*69:01 [10]) was at least 20 µM. For the same sequence, the Kd (HLA-B*15:01 [11]) was at least 20 µM, the Kd (HLA-A*02:12) was at least 20 µM and the Kd (HLA-A*02:19) was at least 20 µM. It also gave a Kd (HLA-A*02:01 [12]) of at least 20 µM, a Kd (HLA-A*02:03) of at least 20 µM and a Kd (HLA-B*27:03) of at least 20 µM. The Kd (HLA-A*02:11) was at least 20 µM, the Kd (HLA-A*29:02) was at least 20 µM and the Kd (HLA-B*46:01 [13]) was at least 20 µM. It also gave a Kd (HLA-B*57:01) of 0.165 µM, a Kd (HLA-A*02:16) of at least 20 µM and a Kd (HLA-A*03:01 [14]) of at least 20 µM. The Kd (HLA-A*26:01 [15]) was at least 20 µM and the Kd (HLA-B*39:01) was at least 20 µM.
Work on RLFFKCIYR yielded a Kd (HLA-A*24:02; [19]) of at least 20 µM, a Kd (HLA-A*01:01 [3]; [19]) of at least 20 µM and a Kd (HLA-B*08:01; [19]) of at least 20 µM. For the same sequence, the Kd (HLA-B*08:02) was at least 20 µM, the Kd (HLA-B*15:01 [5]; [19]) was at least 20 µM and the Kd (HLA-A*02:01 [6]; [19]) was at least 20 µM. For the same sequence, the Kd (HLA-B*58:01; [19]) was at least 20 µM, the Kd (HLA-B*07:02; [19]) was at least 20 µM and the Kd (HLA-B*27:05; [19]) was at least 20 µM. The Kd (HLA-B*40:01; [19]) was at least 20 µM, the Kd (HLA-B*46:01 [16]) was at least 20 µM and the Kd (HLA-A*03:01 [7]; source organism: Influenza A virus (A/Puerto Rico/8/34/Mount Sinai(H1N1))) was 0.146 µM. The Kd (HLA-B*44:02; [19]) was at least 20 µM and the Kd (HLA-B*18:01) was at least 20 µM.
TTFPVNGGY showed a Kd (HLA-A*01:01 [3]; [20]) of 0.345 µM, a Kd (HLA-B*08:01; [21]) of at least 20 µM and a Kd (HLA-A*69:01 [4]; [20]) of 0.334 µM. The Kd (HLA-B*15:01 [5]; [20]) was 0.165 µM, the Kd (HLA-A*02:01 [6]; [21]) was at least 20 µM and the Kd (HLA-A*31:01; [21]) was at least 20 µM. The Kd (HLA-A*30:01) was 16 µM, the Kd (HLA-B*58:01; [20]) was at least 10 µM and the Kd (HLA-B*07:02; [21]) was at least 20 µM. The Kd (HLA-B*27:05; [21]) was at least 20 µM, the Kd (HLA-B*40:01; [21]) was at least 20 µM and the Kd (HLA-A*03:01 [7]; [20]) was 1.46 µM. The Kd (HLA-B*44:02; [21]) was at least 20 µM, the Kd (HLA-A*26:01 [8]; [20]) was 0.0228 µM and the Kd (HLA-A*11:01; [20]) was 5.77 µM. The Kd (HLA-B*35:01; [20]) was 0.097 µM.
VTNDGVIFF gave a Kd (HLA-C*05:01) of 0.003 µM, a Kd (HLA-C*12:03; [22]) of 0.319 µM and a Kd (HLA-C*15:02) of at least 20 µM. The Kd (HLA-A*26:01 [8]; [22]) was 1.09 µM.
For YPKCDLVEL, the Kd (HLA-A*01:01 [3]; [23]) was at least 20 µM, the Kd (HLA-B*08:01; [23]) was 0.54 µM and the Kd (HLA-A*69:01 [4]; [23]) was 0.177 µM. The Kd (HLA-B*15:01 [5]; [23]) was at least 20 µM, the Kd (HLA-A*02:01 [6]; [23]) was at least 20 µM and the Kd (HLA-A*31:01; [23]) was at least 20 µM. For the same sequence, the Kd (HLA-B*58:01; [23]) was at least 20 µM, the Kd (HLA-B*07:02; [23]) was 0.224 µM and the Kd (HLA-B*27:05; [23]) was at least 20 µM. The Kd (HLA-B*40:01; [23]) was at least 20 µM, the Kd (HLA-A*03:01 [7]; [23]) was at least 20 µM and the Kd (HLA-B*44:02; [23]) was at least 20 µM. The Kd (HLA-A*26:01 [8]; [23]) was at least 20 µM, the Kd (HLA-A*11:01; [23]) was at least 20 µM and the Kd (HLA-B*35:01; [23]) was 0.00816 µM.
